{"source": "patent US8443799B2", "about": "“Dry powder inhalation system for transpulmonary administration” (Otsuka Pharmaceutical Co., Ltd., priority 2001, dated 2013)", "origin": "cited, not measured here", "details": "disclosure in WO 95/31479", "data": [{"substance": "interferon", "values": [{"measurement": "deactivation during the spray drying process", "result": "about 25%"}]}]}
